Assay results published in patent US5847088A, “Antibodies specific for platelet-activating factor acetylhydrolase” (ICOS Corporation, priority 1995, dated 1998).

How the values were obtained:
[1] = type: biochemical
Excerpt: The most remarkable property of the PAF acetylhydrolase is its marked specificity for substrates with a short residue at the sn-2 position of the substrate. This strict specificity distinguishes PAF acetylhydrolase from other forms of PLA2. […] Native plasma PAF-AH has several other properties that distinguish it from other phospholipases including calcium-independence and resistance to compounds that modify sulfhydryl groups or disrupt disulfides.

[2] = system: PAF-induced foot edema; test: Rat foot edema model, PAF-induced; type: in vivo
Experimental: Six to eight-week-old female Long Evans rats (Charles River, Wilmington, Mass.), weighing 180-200 grams, were used for all experiments. Prior to experimental manipulations, animals were anesthetized with a mixture of the anesthetics Ketaset (Fort Dodge Laboratories, Fort Dodge, Iowa), Rompun (Miles, Shawnee Mission, Kans.), and Ace Promazine (Aveco, Fort Dodge, Iowa) administered subcutaneously at approximately 2.5 mg Ketaset, 1.6 mg Rompun, 0.2 mg Ace Promazine per animal per dose. Edema was induced in the foot by administration of either PAF or zymosan as follows. PAF (Sigma #P-1402) was freshly prepared for each experiment from a 19.1 mM stock solution stored in chloroform/methanol (9:1) at -20° C. Required volumes were dried down under N2, diluted 1:1000 in a buffer containing 150 mM NaCl, 10 mM Tris pH 7.5, and 0.25% BSA, and sonicated for five minutes. Animals received 50 μl PAF (final dose of 0.96 nmoles) subcutaneously between the hind foot pads, and edema was assessed after 1 hour and again after 2 hours in some experiments. Zymosan A (Sigma #A-8800) was freshly prepared for each experiment as a suspension of 10 mg/ml in PBS. Animals received 50 μl of zymosan (final dose of 500 μg) subcutaneously between the hind foot pads and edema was assessed after 2 hours.
Edema was quantitated by measuring the foot volume immediately prior to administration of PAF or zymosan and at indicated time point post-challenge with PAF or zymosan. Edema is expressed as the increase in foot volume in milliliters. Volume displacement measurements were made on anesthetized animals using a plethysmometer (UGO Basile, model #7150) which measures the displaced water volume of the immersed foot. […] Repeated measurements of the same foot using this technique indicate the precision to be within 5%.
PAF-AH was injected locally between the foot pads, or systematically by IV injection in the tail vein. For local administration rats received 100 μl PAF-AH (4000-6000 U/ml) delivered subcutaneously between the right hind foot pads. Left feet served as controls by administration of 100 μl carrier (buffered salt solution). For systemic administration of PAF-AH, rats received the indicated units of PAF-AH in 300 μl of carrier administered IV in the tail vein. Controls received the appropriate volume of carrier IV in the tail vein.

[3] = system: PAF-induced pleurisy; test: PAF-induced pleurisy (Evans blue vascular leakage); type: in vivo, rat; conditions: 300 μl PAF-AH (1500 μmol/ml/hour) IV 15 minutes before 2.0 nmol PAF, 1 hour
Experimental: Fifteen minutes later the rats received an 100 μl injection of PAF (2.0 nmol) into the pleural space. One hour following PAF challenge, rats were sacrificed and the pleural fluid was collected by rinsing the cavity with 3 ml heparinized phosphate buffered saline. The degree of vascular leak was determined by the quantity of Evans blue dye in the pleural space which was quantitated by absorbance at 620 nm.

[4] = system: PAF-induced necrotizing enterocolitis; test: Rat model of PAF-induced necrotizing enterocolitis (NEC); type: in vivo
Experimental: The small intestines were removed after 2 hours from the ligament of Trietz to the cecum, thoroughly washed with cold saline and examined grossly. Samples were obtained from microscopic examination from the upper, middle and lower portions of the small intestine. The tissues were fixed in buffered formalin and the sample processed for microscopic examination by staining with hematoxylin and eosin. The experiment was repeated three times.
(§1) In order to determine if the protection against NEC in rats was dose dependent, animals were treated with increasing doses of PAF-AH 15 minutes prior to PAF administration. Initially, PAF-AH, ranging from 25.5 to 25,500 units were administered into the tail vein of rats. PAF (0.4 μg in 0.2 ml of BSA-saline) was subsequently injected into the abdominal aorta 15 minutes after the administration of PAF-AH. The small intestine was removed and examined for NEC development 2 hours after PAF administration. Plasma PAF-AH activity was determined prior to the exogenous administration of the enzyme, and 15 minutes and 21/4 hours after PAF-AH administration. The results are the mean of 2-5 animals in each group.
In order to determine the length of time exogenous PAF-AH afforded protection against development of NEC, rats were injected once with a fixed amount of the enzyme via the tail vein and subsequently challenged with PAF at various time points. PAF-AH (8,500 units in 0.3 ml) or vehicle alone was administered into the tail vein of rats, and PAF (0.36 μg in 0.2 ml of BSA-saline) was injected into the abdominal aorta at the various times after the enzyme administration. The small intestines were removed 2 hours after the PAF injection for gross and histological examinations in order to evaluate for NEC development. Plasma PAF-AH activities were determined at various times after enzyme administration and two hours after PAF administration. The mean value±standard error for enzyme activity was determined for each group.
In order to determine if administration of PAF-AH was capable of reversing development of NEC induced by PAF injection, 25,500 units of enzyme was administered via injection into the vena cava two minutes following PAF administration (0.4 μg).

[5] = Plasma PAF-AH activity in rats of the NEC experiments; type: in vivo, rat
Experimental: The plasma PAF-AH activities were also determined in the rats utilized in the experiment described above. PAF-AH activity was determined as follows. Prior to the tail vein injection, blood samples were obtained. Subsequently blood samples were obtained from the vena cava just prior to the injection of PAF and at the time of sacrifice. Approximately 50 μl of blood was collected in heparinized capillaries. The plasma was obtained following centrifugation (980×g for 5 minutes). The enzyme was assayed as previously described by Yasuda and Johnston, Endocrinology, 130:708-716 (1992).
as §1

[6] = 25,500 units IV, 21/4 hours after injection

B1: PAF-AH: Recombinant human plasma platelet-activating factor acetylhydrolase (beginning at Ile42 of SEQ ID NO:8) expressed in E. coli (protein, UniProt Q13093 22-441, looked up)
Platelet-activating factor …: FDWQYINPVAHMKSSAWVNKIQVLMAAASFGQTKIPRGNGPYSVGCTDLMFDHTNKGTFLRLYYPSQDNDRLDTLWIPNKEYFWGLSKFLGTHWLMGNILRLLFGSMTTPANWNSPLRPGEKYPLVVFSHGLGAFRTLYSAIGIDLASHGFIVAAVEHRDRSASATYYFKDQSAAEIGDKSWLYLRTLKQEEETHIRNEQVRQRAKECSQALSLILDIDHGKPVKNALDLKFDMEQLKDSIDREKIAVIGHSFGGATVIQTLSEDQRFRCGIALDAWMFPLGDEVYSRIPQPLFFINSEYFQYPANIIKMKKCYSPDKERKMITIRGSVHQNFADFTFATGKIIGHMLKLKGDIDSNVAIDLSNKASLAFLQKHLGLHKDFDQWDCLIEGDDENLIPGTNINTTNQHIMLQNSSGIEKYN
[1]
  degradation of glutaroylPC (oxidized phospholipid): rapidly degraded
[2]; 2000 U IV 15 minutes before PAF, 1 hour, ± SEM (FIG. 6)
  mean increase in volume (foot edema): 0.08 ± 0.02 mL
[2]; 2000 U IV 15 minutes prior to PAF, two hours after challenge, ± SEM
  mean volume increase (foot edema): 0.10 mL
[2]; IV 15 minutes prior to PAF, edema after 1 hour
  ID50: 40-80 U per rat
[2]; IV dosing studies
  IV doses found to dramatically reduce PAF mediated inflammation: 160-2000 U/rat
[2]; PAF-AH 2000 U IV, CV3988 or Alprazolam 2 mg IP (FIG. 10)
  PAF-induced edema, PAF-AH versus PAF antagonists: reduction in PAF-induced edema beyond that afforded by the established PAF antagonists
[2]; calculated from plasma volume of 180-200 gram rats
  plasma concentration predicted to block PAF-elicited edema: 25-40 U/ml
[2]; local subcutaneous 100 μl PAF-AH (4000-6000 U/ml), immediate PAF challenge, 1 hour post-challenge, mean ± SEM
  increase in foot volume: 0.08 mL
[2]; single 2000 U IV dose
  duration of protection from PAF induced edema: at least 24 hours
[3]
  reduction in inflammation (vascular leakage, Evans blue in pleural space): > 80%
[4]; 8,500 units IV once
  NEC development, PAF challenge within the first eight hours after injection: none of the rats developed NEC
  animals developing NEC, PAF challenge at 24 and 48 hours after injection: 100%
[4]; 25,500 units IV followed by PAF injection
  protection against NEC: completely protected
[4]; 25,500 units IV, no PAF
  gross findings of bowel, PAF-AH in the absence of PAF: no effect on the gross findings
[4]; 25,500 units into vena cava
  NEC development, enzyme given 15 minutes after PAF: all animals developed NEC
[4]; 25,500 units into vena cava, PAF 0.4 μg
  NEC development, enzyme given two minutes following PAF: None of the animals developed NEC
[4]; 25,500 units via tail vein 15 minutes prior to PAF into aorta
  gross findings of bowel: the bowel appeared to be normal
[4]; IV 15 minutes prior to PAF 0.4 μg
  lowest protective amount of enzyme against NEC: 2040 units
[4]; less than 2,000 units of the enzyme
  NEC development at low doses: developed NEC
[5]; 2040 units IV
  plasma PAF-AH activity after 15 minutes: 363 units per ml of plasma
[5]; 2040 units IV, 15 minutes
  increase of plasma PAF-AH activity over basal levels: five-fold increase over basal levels
[5]; 25,500 units IV, 21/4 hours after PAF-AH injection
  plasma PAF-AH activity at time of sacrifice, groups 2 and 4: 1855±257 units
[5]; [6]
  plasma PAF-AH activity at time of sacrifice, Group 2: 1771±308
  plasma PAF-AH activity at time of sacrifice, Group 4: 1939±478
[5]; 25,500 units IV, BSA-saline group
  plasma PAF-AH activity after 15 minutes, group 2: 2249±341 units (1 unit equals 1 nmoles×min^-1 ×ml^-1 plasma)
[5]; 25,500 units IV, PAF group
  plasma PAF-AH activity after 15 minutes, group 4: 2494±623 units (1 unit equals 1 nmoles×min^-1 ×ml^-1 plasma)
[5]; less than 1,020 total units administered
  resultant plasma enzyme activity: ≤ 160
